The numbers were not newly measured in article PMC5726918, which cites them from elsewhere.

This data set deals with Asp3 (position 3, ---AADAA---). Briefly: potentiometry. To be noted: free peptide in solution.

Usually pKa stands for the pH at which an ionisable group is half protonated. For the protein AADAA [Alanine-based pentapeptide AADAA (terminally blocked, uncharged) (synthetic)], the pKa was 3.9.
